Experimental data from patent US20180185516A1, “DELIVERY OF TARGET SPECIFIC NUCLEASES” (Sangamo Therapeutics, Inc., priority 2016, published 2018).

Tests used:
[1] = tested on: ZFN 31523 (mALB) (synthetic); experiment: cell_activity; details: pair with 48641; mouse liver after third 2 mg/kg LNP dose
[2] = tested on: ZFN 48641 (mALB) (synthetic); experiment: cell_activity; details: pair with 31523; mouse liver after third 2 mg/kg LNP dose
mouse albumin = experiment: Indel analysis (nuclease activity) in livers of mice injected intravenously with ZFN mRNA LNPs; type: in vivo; details: 48641/31523 mRNA LNP (II-9), single dose 2 mg/kg; FIG. 4B
Protocol: 8-10 week old C57BL6 purchased from Charles River were injected intravenously through the tail vein with 200 uL of an aqueous solution containing diluted LNPs or a mixture of diluted LNPs and AAV donor encoding a human IDS or human FIX transgene containing homology arms flanking the ZFN cut site and a splice acceptor just upstream of the coding sequence of the transgene. Some animals were injected with 5 mg/kg dexamethasone intraperitoneally 30 minutes prior to LNP dosing. Animals were then sacrificed 7 days post LNP dosing or re-dosed with LNPs at either a 7 or 14 day interval before subsequent sacrifice and harvesting of liver tissue. Livers were snap frozen and a small portion of both the left and right lobes were dissected and harvested for gDNA using a FastPrep-24 Homogenizer (MP Biomedicals), Lysis Matrix D solution (MP Biomedicals), and a MasterPure DNA Purification kit (Epicentre).
Primers were designed to amplify approximately 200 bp of total genomic DNA sequence containing the ZFN cut site. Amplicons were then ran on either a Miseq or Nextseq (Illumina) and insertions and deletions (indels) from the wildtype genomic sequence were quantified.
To test the ability of targeted zinc finger nucleases to cleave a site in the mouse genome in vivo, mRNAs encoding albumin specific nucleases were incorporated into LNPs as described above using the cationic lipid I-6. […]

**Q.** “TTTCCTGTAACGATCGGGAACTGGCATC (double strand) [mouse ALB intron 1 right half-site]” was tested. Which activity [1] did it give?
**A.** 25 % indels

**Q.** “CTGAAGGTGGCAATGGTTCCTCTCTGCT (double strand) [mouse ALB intron 1 left half-site]” was tested. Which activity [2] did it give?
**A.** 25 % indels

**Q.** With `C[C@H]1C[C@@H]2[C@H]([C@@H](O)C[C@@]3(C)[C@H]2CC[C@]3(O)C(=O)COC(=O)CCC(=O)[O-])[C@@]2(C)C=CC(=O)C=C12.[Na+]` [Solumedrol®, methylprednisolone sodium succinate] as the molecule, how does the “nuclease activity, dexamethasone pretreatment vs Solumedrol pretreatment plus 3 days” value (mouse albumin) read?
**A.** slightly more efficacious
